# T1: Bud14, P27637
# T1 sequence (P27637 247-328, looked up): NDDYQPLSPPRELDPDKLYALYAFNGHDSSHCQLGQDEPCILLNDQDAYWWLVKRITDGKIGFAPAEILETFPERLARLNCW
# T2: Lsb3, P43603
# T2 sequence (P43603 385-451, looked up): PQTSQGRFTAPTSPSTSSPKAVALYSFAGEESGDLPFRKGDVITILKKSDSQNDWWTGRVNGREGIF
# T3: Lsb4, P32793
# T3 sequence (P32793 402-468, looked up): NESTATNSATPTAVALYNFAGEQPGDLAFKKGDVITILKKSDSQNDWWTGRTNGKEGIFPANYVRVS
# T4: Abp1, P15891
# T4 sequence (P15891 535-592, looked up): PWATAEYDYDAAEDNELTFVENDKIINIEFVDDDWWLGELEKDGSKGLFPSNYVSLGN
# T5: Bbc1, P47068
# T5 sequence (P47068 1-78, looked up): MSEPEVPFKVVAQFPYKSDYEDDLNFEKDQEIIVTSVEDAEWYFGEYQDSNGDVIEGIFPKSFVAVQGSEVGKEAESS
# T6: Bzz1-2, P38822
# T6 sequence (P38822 568-633, looked up): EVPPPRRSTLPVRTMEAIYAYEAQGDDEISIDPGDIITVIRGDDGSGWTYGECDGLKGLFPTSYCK
# T7: Boi1, P38041
# T7 sequence (P38041 1-86, looked up): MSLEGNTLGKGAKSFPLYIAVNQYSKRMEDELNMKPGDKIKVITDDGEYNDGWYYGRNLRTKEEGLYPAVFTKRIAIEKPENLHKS
# T8: Fus1, P11710
# T8 sequence (P11710 432-512, looked up): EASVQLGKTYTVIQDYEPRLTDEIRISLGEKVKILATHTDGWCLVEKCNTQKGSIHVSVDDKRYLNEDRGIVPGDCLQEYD
# T9: Pin3, Q06449
# T9 sequence (Q06449 53-122, looked up): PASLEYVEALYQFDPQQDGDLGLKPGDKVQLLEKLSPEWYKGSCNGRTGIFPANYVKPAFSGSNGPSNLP
# T10: Boi2, P39969
# T10 sequence (P39969 32-116, looked up): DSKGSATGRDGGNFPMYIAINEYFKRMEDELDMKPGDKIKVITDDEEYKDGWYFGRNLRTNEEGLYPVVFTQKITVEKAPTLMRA
# T11: Myo5, Q04439
# T11 sequence (Q04439 1072-1160, looked up): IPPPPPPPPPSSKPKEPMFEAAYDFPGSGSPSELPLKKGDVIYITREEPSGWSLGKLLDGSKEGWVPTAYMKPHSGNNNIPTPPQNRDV
# T12: Sla1-3, P32790
# T12 sequence (P32790 344-424, looked up): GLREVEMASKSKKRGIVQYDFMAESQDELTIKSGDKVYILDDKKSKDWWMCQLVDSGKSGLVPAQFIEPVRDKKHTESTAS
# T13: Lsb1, P53281
# T13 sequence (P53281 45-122, looked up): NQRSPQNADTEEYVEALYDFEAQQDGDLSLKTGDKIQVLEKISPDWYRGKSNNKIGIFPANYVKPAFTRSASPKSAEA
# T14: Pex13, P80667
# T14 sequence (P80667 295-386, looked up): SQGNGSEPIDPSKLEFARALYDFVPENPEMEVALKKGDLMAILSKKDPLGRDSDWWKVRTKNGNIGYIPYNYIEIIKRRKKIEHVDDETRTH
# T15: Nbp2, Q12163
# T15 sequence (Q12163 103-180, looked up): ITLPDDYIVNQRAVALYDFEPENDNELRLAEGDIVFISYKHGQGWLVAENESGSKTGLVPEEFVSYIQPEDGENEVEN
# T16: Hse1, P38753
# T16 sequence (P38753 208-285, looked up): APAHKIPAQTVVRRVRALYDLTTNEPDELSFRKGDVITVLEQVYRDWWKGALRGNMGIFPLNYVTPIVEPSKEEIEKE
# T17: Sla1-2, P32790
# T17 sequence (P32790 60-140, looked up): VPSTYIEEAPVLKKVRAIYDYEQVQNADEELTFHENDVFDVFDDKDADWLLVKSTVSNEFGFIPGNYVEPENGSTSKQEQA
# T18: Cyk3, Q07533
# T18 sequence (Q07533 1-83, looked up): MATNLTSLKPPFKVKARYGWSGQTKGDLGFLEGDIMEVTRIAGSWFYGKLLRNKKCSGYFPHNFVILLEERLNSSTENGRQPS
# T19: Bzz1-1, P38822
# T19 sequence (P38822 478-572, looked up): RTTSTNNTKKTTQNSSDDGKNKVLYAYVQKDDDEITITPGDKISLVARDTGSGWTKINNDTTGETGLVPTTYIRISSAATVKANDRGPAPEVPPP
# T20: Cdc25, P04821
# T20 sequence (P04821 50-136, looked up): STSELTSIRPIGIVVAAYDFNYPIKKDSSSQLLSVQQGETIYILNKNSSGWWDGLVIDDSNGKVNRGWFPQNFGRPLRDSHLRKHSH
# T21: Hof1, Q05080
# T21 sequence (Q05080 590-669, looked up): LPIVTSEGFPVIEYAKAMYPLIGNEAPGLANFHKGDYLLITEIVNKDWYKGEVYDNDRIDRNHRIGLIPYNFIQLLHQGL
# Experiments:
# Experiment in all cases: SPOT array
# Bud14, P27637 = target: T1, Bud14, P27637; conditions: median of control spots 956
# Lsb3, P43603 = target: T2, Lsb3, P43603; conditions: median of control spots 406
# GST = conditions: median of control spots 978
# Lsb4, P32793 = target: T3, Lsb4, P32793; conditions: median of control spots 397
# Abp1, P15891 = target: T4, Abp1, P15891; conditions: median of control spots 935
# Bbc1, P47068 = target: T5, Bbc1, P47068; conditions: median of control spots 796
# Bzz1-2, P38822 = target: T6, Bzz1-2, P38822; conditions: median of control spots 4538
# Boi1, P38041 = target: T7, Boi1, P38041; conditions: median of control spots 1162
# Fus1, P11710 = target: T8, Fus1, P11710; conditions: median of control spots 1200
# Pin3, Q06449 = target: T9, Pin3, Q06449; conditions: median of control spots 2171
# Boi2, P39969 = target: T10, Boi2, P39969; conditions: median of control spots 1161
# Myo5, Q04439 = target: T11, Myo5, Q04439; conditions: median of control spots 471
# Sho1, P40073 = conditions: median of control spots 1148
# Sho1, P40073, sequence (P40073 287-367): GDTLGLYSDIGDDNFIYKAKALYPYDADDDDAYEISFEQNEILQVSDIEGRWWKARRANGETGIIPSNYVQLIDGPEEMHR
# Sla1-3, P32790 = target: T12, Sla1-3, P32790; conditions: median of control spots 5475
# Lsb1, P53281 = target: T13, Lsb1, P53281; conditions: median of control spots 388
# Pex13, P80667 = target: T14, Pex13, P80667; conditions: median of control spots 1341
# Myo3, P36006 = conditions: median of control spots 468
# Nbp2, Q12163 = target: T15, Nbp2, Q12163; conditions: median of control spots 357
# Hse1, P38753 = target: T16, Hse1, P38753; conditions: median of control spots 1727
# Sla1-2, P32790 = target: T17, Sla1-2, P32790; conditions: median of control spots 712
# Cyk3, Q07533 = target: T18, Cyk3, Q07533; conditions: median of control spots 1451
# Bzz1-1, P38822 = target: T19, Bzz1-1, P38822; conditions: median of control spots 4446
# Rvs167, P39743 = conditions: median of control spots 2707
# Rvs167, P39743, sequence (P39743 419-482): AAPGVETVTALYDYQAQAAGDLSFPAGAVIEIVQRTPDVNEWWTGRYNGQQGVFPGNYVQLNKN
# Cdc25, P04821 = target: T20, Cdc25, P04821; conditions: median of control spots 969
# Hof1, Q05080 = target: T21, Hof1, Q05080; conditions: median of control spots 4086
# Bem1-2, P29366 = conditions: median of control spots 4347
# Bem1-2, P29366, sequence (P29366 139-227): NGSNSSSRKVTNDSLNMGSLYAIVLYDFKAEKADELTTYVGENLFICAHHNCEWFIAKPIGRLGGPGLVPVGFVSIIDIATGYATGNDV
# Bem1-1, P29366 = conditions: median of control spots 4282
# Bem1-1, P29366, sequence (P29366 55-141): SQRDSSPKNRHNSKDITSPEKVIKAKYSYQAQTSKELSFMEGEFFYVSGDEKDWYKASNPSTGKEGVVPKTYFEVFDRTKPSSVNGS
Binder,"SPOT intensity (Bud14, P27637)","SPOT intensity (Lsb3, P43603)",SPOT intensity (GST),"SPOT intensity (Lsb4, P32793)","SPOT intensity (Abp1, P15891)","SPOT intensity (Bbc1, P47068)","SPOT intensity (Bzz1-2, P38822)","SPOT intensity (Boi1, P38041)","SPOT intensity (Fus1, P11710)","SPOT intensity (Pin3, Q06449)","SPOT intensity (Boi2, P39969)","SPOT intensity (Myo5, Q04439)","SPOT intensity (Sho1, P40073)","SPOT intensity (Sla1-3, P32790)","SPOT intensity (Lsb1, P53281)","SPOT intensity (Pex13, P80667)","SPOT intensity (Myo3, P36006)","SPOT intensity (Nbp2, Q12163)","SPOT intensity (Hse1, P38753)","SPOT intensity (Sla1-2, P32790)",other results
MKRSRPSRSIPYTTP,7,1,0,6,32,25,29,3,5,34,2,2,54,35,0,10,5,0,14,6,"SPOT intensity (Cyk3, Q07533): 1; SPOT intensity (Bzz1-1, P38822): 1; SPOT intensity (Rvs167, P39743): 6; SPOT intensity (Cdc25, P04821): 9; SPOT intensity (Hof1, Q05080): 0; SPOT intensity (Bem1-2, P29366): 39; SPOT intensity (Bem1-1, P29366): 0"
TKFRISLGLPVGAIM,6,28,0,46,289,43,2,1,32,65,0,14,367,3,44,29,69,159,8,9,"SPOT intensity (Cyk3, Q07533): 0; SPOT intensity (Bzz1-1, P38822): 0; SPOT intensity (Rvs167, P39743): 0; SPOT intensity (Cdc25, P04821): 108; SPOT intensity (Hof1, Q05080): 0; SPOT intensity (Bem1-2, P29366): 0; SPOT intensity (Bem1-1, P29366): 0"
SKAKRPKFLLDLQIK,6,2,2,5,78,48,1,2,3,4,0,0,114,19,7,5,6,0,2,2,"SPOT intensity (Cyk3, Q07533): 4; SPOT intensity (Bzz1-1, P38822): 1; SPOT intensity (Rvs167, P39743): 0; SPOT intensity (Cdc25, P04821): 26; SPOT intensity (Hof1, Q05080): 2; SPOT intensity (Bem1-2, P29366): 0; SPOT intensity (Bem1-1, P29366): 0"
KKIRLIFTYPSTVGR,9,20,0,28,196,277,2,61,73,31,13,12,253,8,50,12,41,258,4,6,"SPOT intensity (Cyk3, Q07533): 10; SPOT intensity (Bzz1-1, P38822): 2; SPOT intensity (Rvs167, P39743): 0; SPOT intensity (Cdc25, P04821): 163; SPOT intensity (Hof1, Q05080): 0; SPOT intensity (Bem1-2, P29366): 0; SPOT intensity (Bem1-1, P29366): 0"
